Measurements published in patent US7642244 (Hoffmann-La Roche, dated 2010).
Starred links: 1 amine or outer side, 2 acyl side, 3 side chain; linkers in the order of their positions; H or OH if unused. Non-standard residues stand in square brackets, D forms with d. No end group written: not given here. Pqa = 4-oxo-6-(1-piperazinyl)-3(4H)-quinazoline-acetic acid, O=C(Cn1cnc2ccc(N3CCN([*:1])CC3)cc2c1=O)[*:2]; Phe(3,4-Cl2) = N[C@@H](Cc1ccc(Cl)c(Cl)c1)C(=O)O; Phe(4-CF3) = N[C@@H](Cc1ccc(C(F)(F)F)cc1)C(=O)O; Phe(F5) = N[C@@H](Cc1c(F)c(F)c(F)c(F)c1F)C(=O)O; PEG30,000 SSA = (PEG-30,000)CH2CH2NHCOCH2CH2CO; Phe(3-F) = N[C@@H](Cc1cccc(F)c1)C(=O)O; NMeR = CN[C@@H](CCCNC(=N)N)C(=O)O

What was measured:
Assay in all cases: cell-based or functional assay
Y4R = target: Y4R
Y1R = target: Y1R
Y5R = target: T1, Y5R
T1 sequence (Q15761 whole entry, species assumed, looked up): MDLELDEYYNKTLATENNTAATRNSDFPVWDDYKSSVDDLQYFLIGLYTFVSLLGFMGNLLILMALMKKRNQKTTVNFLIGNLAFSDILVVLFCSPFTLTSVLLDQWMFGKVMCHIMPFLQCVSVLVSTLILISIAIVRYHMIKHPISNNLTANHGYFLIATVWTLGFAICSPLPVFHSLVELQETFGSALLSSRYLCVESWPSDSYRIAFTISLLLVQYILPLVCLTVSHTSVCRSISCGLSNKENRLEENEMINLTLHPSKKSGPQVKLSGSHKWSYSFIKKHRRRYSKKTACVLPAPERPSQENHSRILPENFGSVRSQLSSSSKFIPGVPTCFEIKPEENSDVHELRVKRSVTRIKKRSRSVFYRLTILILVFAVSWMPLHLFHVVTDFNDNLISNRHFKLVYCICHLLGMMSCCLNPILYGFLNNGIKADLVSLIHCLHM

human NPY2 receptor = target: T2, human NPY2 receptor (human, UniProt P49146 1-381)
T2 sequence (looked up): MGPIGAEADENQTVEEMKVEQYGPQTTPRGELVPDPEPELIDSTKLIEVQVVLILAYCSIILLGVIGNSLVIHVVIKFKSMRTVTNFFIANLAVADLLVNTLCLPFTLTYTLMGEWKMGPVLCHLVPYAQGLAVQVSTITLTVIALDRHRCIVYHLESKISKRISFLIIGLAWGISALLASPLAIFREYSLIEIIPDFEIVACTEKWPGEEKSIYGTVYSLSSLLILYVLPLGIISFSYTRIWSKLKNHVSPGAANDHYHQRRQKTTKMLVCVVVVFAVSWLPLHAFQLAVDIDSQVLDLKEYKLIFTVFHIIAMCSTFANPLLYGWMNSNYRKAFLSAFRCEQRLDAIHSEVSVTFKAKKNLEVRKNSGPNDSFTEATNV

Sequence of Y1R (P25929 whole entry): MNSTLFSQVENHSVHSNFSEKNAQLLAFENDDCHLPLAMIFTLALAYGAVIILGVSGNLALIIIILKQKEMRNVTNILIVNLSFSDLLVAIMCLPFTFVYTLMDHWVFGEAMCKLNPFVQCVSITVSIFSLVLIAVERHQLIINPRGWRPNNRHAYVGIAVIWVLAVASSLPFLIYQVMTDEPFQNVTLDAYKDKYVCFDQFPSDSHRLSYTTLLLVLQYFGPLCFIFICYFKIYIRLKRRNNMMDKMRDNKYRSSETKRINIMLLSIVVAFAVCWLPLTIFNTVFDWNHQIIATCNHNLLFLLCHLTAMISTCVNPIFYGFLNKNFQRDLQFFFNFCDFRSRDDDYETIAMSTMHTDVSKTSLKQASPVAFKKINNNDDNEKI

B1: mixture of ((PEG-30,000)CH2CH2CO)Ile-Lys-Pqa-Arg-His-Tyr-Leu-Asn-Trp-Val-Thr-Arg-Gln-(NMe)Arg-Tyr-NH2 and … (peptide)
peptide: IK[Pqa]RHYLNWVTRQ[NMeR]Y-NH2
modifications: also: mixture: PEG30,000 SPA on N-terminal Ile or on Lys ε-amino (majority on Lys)
Question: Which results are given for B1?
Answer: Y4R EC50 (nM) FLIPR (Y4R): > 5000 nM; Y1R EC50 (nM) FLIPR (Y1R): > 5000 nM; Y5R EC50 (nM) FLIPR (Y5R): > 5000 nM

B2: H-Ile-Nle-Pqa-Arg-His-Tyr-Leu-Asn-Trp-Val-Thr-Arg-Gln-(NMe)Arg-Tyr-NH2 (peptide)
peptide: IXXRHYLNWVTRQRY
modifications: Nle as second residue; Pqa as third residue; (NMe)Arg as penultimate residue; C-terminal amide (NH2)
Question: For B2, which “Y4R EC50 (nM) FLIPR” value (Y4R) is on record?
Answer: > 5000 nM

Question: And the “Y1R EC50 (nM) FLIPR” value (Y1R)?
Answer: > 5000 nM

Question: What about the “Y2R EC50 (nM) FLIPR” value (human NPY2 receptor) of the same binder?
Answer: 8.1 nM

Question: What about the “Y2R EC50 (nM) cAMP” value (human NPY2 receptor) of the same binder?
Answer: 0.108 nM

Question: And the “Y5R EC50 (nM) FLIPR” value (Y5R)?
Answer: > 5000 nM

B3: H-Ile-Lys-Pqa-Arg-His-Tyr-Leu-Asn-Leu-Val-Thr-Arg-Gln-(NMe)Arg-1-Nal-NH2 (peptide)
peptide: IKXRHYLNLVTRQRX
modifications: Pqa as third residue; (NMe)Arg as penultimate residue; 1-Nal (1-Naphthyl Alanine) as C-terminal residue; C-terminal amide (NH2)
Question: With B3 as the binder, how does the “Y2R EC50 (nM) FLIPR” value (human NPY2 receptor) read?
Answer: 2.73 nM

Question: And the “Y2R EC50 (nM) cAMP” value (human NPY2 receptor)?
Answer: 1.14 nM

B4: H-Ile-Lys-Pqa-Arg-His-Tyr-Leu-Asn-Leu-Val-Thr-Arg-Gln-(NMe)Arg-3,4-dichloro-Phe-NH2 (peptide)
peptide: H-IK[Pqa]RHYLNLVTRQ[NMeR][Phe(3,4-Cl2)]-NH2
Question: How did the “Y2R EC50 (nM) FLIPR” value (human NPY2 receptor) turn out when B4 was run?
Answer: 4.03 nM

Question: What about the “Y2R EC50 (nM) cAMP” value (human NPY2 receptor) of the same binder?
Answer: 1.47 nM

B5: Ile((PEG-30,000)CH2CH2NHCOCH2CH2CO)(ε)Lys-Pqa-Arg-His-Tyr-Leu-Asn-Trp-Val-Thr-Arg-Gln-(NMe)Arg-Tyr-NH2 (peptide)
peptide: H-IK(PEG30,000 SSA)[Pqa]RHYLNWVTRQ[NMeR]Y-NH2
Question: How did the “Y4R EC50 (nM) FLIPR” value (Y4R) turn out when B5 was run?
Answer: > 5000 nM

Question: What about the “Y1R EC50 (nM) FLIPR” value (Y1R) of the same binder?
Answer: > 5000 nM

Question: And the “Y5R EC50 (nM) FLIPR” value (Y5R)?
Answer: > 5000 nM

B6: H-Ile-Lys-Pqa-Arg-His-Tyr-Leu-Asn-Leu-Val-Thr-Arg-Gln-(NMe)Arg-Cha-NH2 (peptide)
peptide: IKXRHYLNLVTRQRX
modifications: Pqa as third residue; (NMe)Arg as penultimate residue; Cha (Cyclohexyl Alanine) as C-terminal residue; C-terminal amide (NH2)
Question: For B6, which “Y1R EC50 (nM) FLIPR” value (Y1R) is on record?
Answer: > 5000 nM

Question: What about the “Y2R EC50 (nM) FLIPR” value (human NPY2 receptor) of the same binder?
Answer: 0.498 nM

Question: What about the “Y2R EC50 (nM) cAMP” value (human NPY2 receptor) of the same binder?
Answer: 0.5 nM

Question: What about the “Y5R EC50 (nM) FLIPR” value (Y5R) of the same binder?
Answer: 352 nM

B7: H-Ile-Lys-Pqa-Arg-His-Tyr-Leu-Asn-Leu-Val-Thr-Arg-Gln-(NMe)Arg-4 Methoxy-Phe-NH2 (peptide)
peptide: IKXRHYLNLVTRQRF
modifications: Pqa as third residue; (NMe)Arg as penultimate residue; 4 Methoxy-Phe as C-terminal residue; C-terminal amide (NH2)
Question: Which “Y2R EC50 (nM) FLIPR” value (human NPY2 receptor) does the source give for B7 here?
Answer: 0.74 nM

Question: What about the “Y2R EC50 (nM) cAMP” value (human NPY2 receptor) of the same binder?
Answer: 0.55 nM

B8: H-Ile-Lys-Pqa-Arg-His-Tyr-Leu-Asn-Leu-Val-Thr-Arg-Gln-(NMe)Arg-4-trifluoro methyl-Phe-NH2 (peptide)
peptide: H-IK[Pqa]RHYLNLVTRQ[NMeR][Phe(4-CF3)]-NH2
Question: For B8, which “Y2R EC50 (nM) FLIPR” value (human NPY2 receptor) is on record?
Answer: 6.13 nM

Question: What about the “Y2R EC50 (nM) cAMP” value (human NPY2 receptor) of the same binder?
Answer: 3.55 nM

B9: H-Ile-Lys-Pqa-Arg-His-Tyr-Leu-Asn-Leu-Val-Thr-Arg-Gln-(NMe)Arg-3Fluoro-Phe-NH2 (peptide)
peptide: H-IK[Pqa]RHYLNLVTRQ[NMeR][Phe(3-F)]-NH2
Question: How did the “Y2R EC50 (nM) FLIPR” value (human NPY2 receptor) turn out when B9 was run?
Answer: 0.635 nM

Question: What about the “Y2R EC50 (nM) cAMP” value (human NPY2 receptor) of the same binder?
Answer: 0.75 nM

B10: mixture of ((PEG-40,000)CO)Ile-Lys-Pqa-Arg-His-Tyr-Leu-Asn-Trp-Val-Thr-Arg-Gln-(NMe)Arg-Tyr-NH2 and … (peptide)
peptide: IK[Pqa]RHYLNWVTRQ[NMeR]Y-NH2
modifications: also: mixture: PEG40,000 BTC on N-terminal Ile or on Lys ε-amino
Question: Which results are given for B10?
Answer: Y4R EC50 (nM) FLIPR (Y4R): > 5000 nM; Y1R EC50 (nM) FLIPR (Y1R): > 5000 nM; Y5R EC50 (nM) FLIPR (Y5R): > 5000 nM

B11: H-Ile-Lys-Pqa-Arg-His-Tyr-Leu-Asn-Trp-Val-Thr-Arg-Gln-(NMe)Arg-Tyr-NH2 (peptide)
peptide: H-IK[Pqa]RHYLNWVTRQ[NMeR]Y-NH2
Question: Which results are given for B11?
Answer: Y4R EC50 (nM) FLIPR (Y4R): > 5000 nM; Y1R EC50 (nM) FLIPR (Y1R): 298 nM; Y2R EC50 (nM) FLIPR (human NPY2 receptor): 0.44 nM; Y2R EC50 (nM) cAMP (human NPY2 receptor): 0.25 nM; Y5R EC50 (nM) FLIPR (Y5R): > 5000 nM

B12: H-Ile-Lys-Pqa-Arg-His-Tyr-Leu-Asn-Leu-Val-Thr-Arg-Gln-(NMe)Arg-2-Nal-NH2 (peptide)
peptide: IKXRHYLNLVTRQRX
modifications: Pqa as third residue; (NMe)Arg as penultimate residue; 2-Nal (2-Naphthyl Alanine) as C-terminal residue; C-terminal amide (NH2)
Question: B12 was tested. Which “Y2R EC50 (nM) FLIPR” value (human NPY2 receptor) did it give?
Answer: 4.11 nM

Question: And the “Y2R EC50 (nM) cAMP” value (human NPY2 receptor)?
Answer: 2.4 nM

B13: ((PEC30,000)CH2Cl2NHCOCH2CH2CO)Ile-Nle-Pqa-Arg-His-Tyr-Leu-Asn-Trp-Val-Thr-Arg-Gln-(NMe)Arg-Tyr-NH2 (peptide)
peptide: IXXRHYLNWVTRQRY
modifications: PEG30,000-SSA (PEG-CH2CH2NHCOCH2CH2CO-) on the N-terminal Ile; Nle as second residue; Pqa as third residue; (NMe)Arg as penultimate residue; C-terminal amide (NH2)
Question: Which results are given for B13?
Answer: Y4R EC50 (nM) FLIPR (Y4R): > 5000 nM; Y1R EC50 (nM) FLIPR (Y1R): > 5000 nM; Y5R EC50 (nM) FLIPR (Y5R): > 5000 nM

B14: H-Ile-Lys-Pqa-Arg-His-Tyr-Leu-Asn-Leu-Val-Thr-Arg-Gln-(NMe)Arg-Phe-NH2 (peptide)
peptide: H-IK[Pqa]RHYLNLVTRQ[NMeR]F-NH2
Question: Which results are given for B14?
Answer: Y2R EC50 (nM) FLIPR (human NPY2 receptor): 1.54 nM; Y2R EC50 (nM) cAMP (human NPY2 receptor): 0.69 nM

B15: ((PEG-30,000)CH(CH3)CH2CO)Ile-Nle-Pqa-Arg-His-Tyr-Leu-Asn-Trp-Val-Thr-Arg-Gln-(NMe)Arg-Tyr-NH2 (peptide)
peptide: IXXRHYLNWVTRQRY
modifications: (PEG-30,000)CH(CH3)CH2CO (PEG30,000 beta-SBA) on the N-terminal Ile; Nle as second residue; Pqa as third residue; (NMe)Arg as penultimate residue; C-terminal amide (NH2)
Question: B15 was tested. Which “Y4R EC50 (nM) FLIPR” value (Y4R) did it give?
Answer: > 5000 nM

Question: What about the “Y1R EC50 (nM) FLIPR” value (Y1R) of the same binder?
Answer: > 5000 nM

Question: And the “Y5R EC50 (nM) FLIPR” value (Y5R)?
Answer: > 5000 nM

B16: H-Ile-Lys-Pqa-Arg-His-Tyr-Leu-Asn-Leu-Val-Thr-Arg-Gln-(NMe)Arg-2,3,4,5,6 Pentafluoro-Phe-NH2 (peptide)
peptide: H-IK[Pqa]RHYLNLVTRQ[NMeR][Phe(F5)]-NH2
Question: What does the source list for B16?
Answer: Y2R EC50 (nM) FLIPR (human NPY2 receptor): 11.9 nM; Y2R EC50 (nM) cAMP (human NPY2 receptor): 2.5 nM
